Experimental data published in PMC3521585 (Journal of medicinal chemistry, 2009).
Non-standard residues stand in square brackets, D forms with d. No end group written: not given here. *: point of attachment. NH(3,5-(CF3)2-benzyl) = FC(F)(F)c1cc(CN*)cc(C(F)(F)F)c1; βGlc = OC[C@H]1O[C@@H](*)[C@H](O)[C@@H](O)[C@@H]1O; Nle = CCCC[C@H](N)C(=O)O

B1: Tyr-D-Ala-Gly-Phe-Nle-Pro-Leu-Trp-NH-3’,5’-Bzl(CF3)2 (peptide)
chain: YAGFXPLW
modifications: D-Ala at 2; norleucine (Nle) at 5 (written X); C-terminal 3’,5’-bis(trifluoromethyl)benzyl amide (Trp-NH-3’,5’-Bzl(CF3)2)

target: T1, rat μ-opioid receptor (rat, UniProt P33535 1-398); experiment: radioligand binding
T1 sequence (P33535 whole entry): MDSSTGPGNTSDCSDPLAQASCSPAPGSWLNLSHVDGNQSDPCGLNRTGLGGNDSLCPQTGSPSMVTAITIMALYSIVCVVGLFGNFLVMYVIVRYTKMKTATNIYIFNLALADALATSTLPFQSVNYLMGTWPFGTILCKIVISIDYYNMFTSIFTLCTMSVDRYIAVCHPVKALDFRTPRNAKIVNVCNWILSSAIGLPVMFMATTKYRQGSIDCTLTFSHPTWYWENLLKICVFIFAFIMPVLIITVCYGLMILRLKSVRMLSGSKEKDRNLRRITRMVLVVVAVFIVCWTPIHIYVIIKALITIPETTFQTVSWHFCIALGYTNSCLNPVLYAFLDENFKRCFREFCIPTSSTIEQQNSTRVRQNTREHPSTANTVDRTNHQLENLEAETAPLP

| Binder | Ki | LogIC50 |
| --- | --- | --- |
| Y[dA]GF[Nle]PS(βGlc)W-{NH(3,5-(CF3)2-benzyl)} [Tyr-D-Ala-Gly-Phe-Nle-Pro-Ser(Glc)-Trp-NH-3’,5’-Bzl(CF3)2] | 8 nM | -7.77 |
| Y[dA]GF[Nle]S(βGlc)LW-{NH(3,5-(CF3)2-benzyl)} [Tyr-D-Ala-Gly-Phe-Nle-Ser(Glc)-Leu-Trp-NH-3’,5’-Bzl(CF3)2] | 3400 nM | -5.15 |
| Y[dA]GF[Nle]PLS(βGlc)W-{NH(3,5-(CF3)2-benzyl)} [Tyr-D-Ala-Gly-Phe-Nle-Pro-Leu-Ser(Glc)-Trp-NH-3’,5’-Bzl(CF3)2] | – | -7.22 |
| Y[dA]GFS(βGlc)PLW-{NH(3,5-(CF3)2-benzyl)} [Tyr-D-Ala-Gly-Phe-Ser(Glc)-Pro-Leu-Trp-NH-3’,5’-Bzl(CF3)2] | 260 nM | -6.12 |

target: T2, human δ-opioid receptor (human, UniProt P41143 1-372); experiment: cell-based or functional assay
T2 sequence (P41143 whole entry, stated change not applied): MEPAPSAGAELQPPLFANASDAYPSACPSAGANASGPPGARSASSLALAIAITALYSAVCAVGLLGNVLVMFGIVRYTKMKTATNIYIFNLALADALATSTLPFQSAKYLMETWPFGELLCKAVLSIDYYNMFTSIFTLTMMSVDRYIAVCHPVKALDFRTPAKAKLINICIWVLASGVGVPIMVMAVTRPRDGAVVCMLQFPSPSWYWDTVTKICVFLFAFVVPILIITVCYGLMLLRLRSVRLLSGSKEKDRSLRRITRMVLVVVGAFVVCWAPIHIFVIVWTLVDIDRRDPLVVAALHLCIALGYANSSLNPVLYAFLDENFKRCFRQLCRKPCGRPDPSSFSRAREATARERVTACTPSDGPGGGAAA

| Binder | [35S]GTPγS binding, HN9.10 membranes expressing hDOR: EC50 | [35S]GTPγS binding, HN9.10 membranes expressing hDOR: Emax | [35S]GTPγS binding, HN9.10 membranes expressing hDOR: LogEC50 |
| --- | --- | --- | --- |
| B1 | 5 nM | 120% | -8.3 |
| Y[dA]GF[Nle]PS(βGlc)W-{NH(3,5-(CF3)2-benzyl)} [Tyr-D-Ala-Gly-Phe-Nle-Pro-Ser(Glc)-Trp-NH-3’,5’-Bzl(CF3)2] | 7.9 nM | 64% | -8.1 |
| Y[dA]GF[Nle]S(βGlc)LW-{NH(3,5-(CF3)2-benzyl)} [Tyr-D-Ala-Gly-Phe-Nle-Ser(Glc)-Leu-Trp-NH-3’,5’-Bzl(CF3)2] | – | 130% | – |
| Y[dA]GF[Nle]PLS(βGlc)W-{NH(3,5-(CF3)2-benzyl)} [Tyr-D-Ala-Gly-Phe-Nle-Pro-Leu-Ser(Glc)-Trp-NH-3’,5’-Bzl(CF3)2] | – | 49% | -7.56 |
| Y[dA]GFS(βGlc)PLW-{NH(3,5-(CF3)2-benzyl)} [Tyr-D-Ala-Gly-Phe-Ser(Glc)-Pro-Leu-Trp-NH-3’,5’-Bzl(CF3)2] | 52 nM | – | -7.29 |

target: T1, rat μ-opioid receptor; experiment: cell-based or functional assay

| Binder | [35S]GTPγS binding, HN9.10 membranes expressing rMOR: EC50 | [35S]GTPγS binding, HN9.10 membranes expressing rMOR: Emax | [35S]GTPγS binding, HN9.10 membranes expressing rMOR: LogEC50 |
| --- | --- | --- | --- |
| Y[dA]GF[Nle]PS(βGlc)W-{NH(3,5-(CF3)2-benzyl)} [Tyr-D-Ala-Gly-Phe-Nle-Pro-Ser(Glc)-Trp-NH-3’,5’-Bzl(CF3)2] | 18 nM | 38% | -7.75 |
| Y[dA]GF[Nle]S(βGlc)LW-{NH(3,5-(CF3)2-benzyl)} [Tyr-D-Ala-Gly-Phe-Nle-Ser(Glc)-Leu-Trp-NH-3’,5’-Bzl(CF3)2] | 380 nM | 81% | -6.42 |
| Y[dA]GF[Nle]PLS(βGlc)W-{NH(3,5-(CF3)2-benzyl)} [Tyr-D-Ala-Gly-Phe-Nle-Pro-Leu-Ser(Glc)-Trp-NH-3’,5’-Bzl(CF3)2] | – | 50% | -8.21 |
| Y[dA]GFS(βGlc)PLW-{NH(3,5-(CF3)2-benzyl)} [Tyr-D-Ala-Gly-Phe-Ser(Glc)-Pro-Leu-Trp-NH-3’,5’-Bzl(CF3)2] | 180 nM | – | -6.76 |

target: T2, human δ-opioid receptor; experiment: radioligand binding

| Binder | Ki | LogIC50 |
| --- | --- | --- |
| B1 | 1 nM | -8.67 |
| Y[dA]GF[Nle]PS(βGlc)W-{NH(3,5-(CF3)2-benzyl)} [Tyr-D-Ala-Gly-Phe-Nle-Pro-Ser(Glc)-Trp-NH-3’,5’-Bzl(CF3)2] | – | -8.1 |
| Y[dA]GFS(βGlc)PLW-{NH(3,5-(CF3)2-benzyl)} [Tyr-D-Ala-Gly-Phe-Ser(Glc)-Pro-Leu-Trp-NH-3’,5’-Bzl(CF3)2] | 59 nM | -6.91 |

target: human NK1 receptor (human, UniProt P25103 1-407); experiment: radioligand binding
Sequence (P25103 whole entry): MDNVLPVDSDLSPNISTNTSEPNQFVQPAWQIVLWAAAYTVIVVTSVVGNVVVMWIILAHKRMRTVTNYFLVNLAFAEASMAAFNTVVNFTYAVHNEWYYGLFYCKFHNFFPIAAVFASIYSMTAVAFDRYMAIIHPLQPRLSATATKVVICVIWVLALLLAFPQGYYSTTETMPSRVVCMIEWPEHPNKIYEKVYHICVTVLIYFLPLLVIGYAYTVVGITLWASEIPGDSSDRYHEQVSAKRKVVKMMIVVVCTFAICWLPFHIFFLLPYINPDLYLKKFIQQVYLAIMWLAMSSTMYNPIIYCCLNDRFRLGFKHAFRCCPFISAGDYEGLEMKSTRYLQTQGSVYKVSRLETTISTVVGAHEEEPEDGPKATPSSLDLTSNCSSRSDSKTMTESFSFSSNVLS

| Binder | Ki | LogIC50 |
| --- | --- | --- |
| B1 | 0.0028 nM | -11.6 |
| Y[dA]GF[Nle]S(βGlc)LW-{NH(3,5-(CF3)2-benzyl)} [Tyr-D-Ala-Gly-Phe-Nle-Ser(Glc)-Leu-Trp-NH-3’,5’-Bzl(CF3)2] | 1.8 nM | -8.38 |
| Y[dA]GF[Nle]PLS(βGlc)W-{NH(3,5-(CF3)2-benzyl)} [Tyr-D-Ala-Gly-Phe-Nle-Pro-Leu-Ser(Glc)-Trp-NH-3’,5’-Bzl(CF3)2] | – | -9.93 |
| Y[dA]GFS(βGlc)PLW-{NH(3,5-(CF3)2-benzyl)} [Tyr-D-Ala-Gly-Phe-Ser(Glc)-Pro-Leu-Trp-NH-3’,5’-Bzl(CF3)2] | 0.0011 nM | -12.2 |

target: rat NK1 receptor (rat, UniProt P14600 1-407); experiment: radioligand binding
Sequence (P14600 whole entry): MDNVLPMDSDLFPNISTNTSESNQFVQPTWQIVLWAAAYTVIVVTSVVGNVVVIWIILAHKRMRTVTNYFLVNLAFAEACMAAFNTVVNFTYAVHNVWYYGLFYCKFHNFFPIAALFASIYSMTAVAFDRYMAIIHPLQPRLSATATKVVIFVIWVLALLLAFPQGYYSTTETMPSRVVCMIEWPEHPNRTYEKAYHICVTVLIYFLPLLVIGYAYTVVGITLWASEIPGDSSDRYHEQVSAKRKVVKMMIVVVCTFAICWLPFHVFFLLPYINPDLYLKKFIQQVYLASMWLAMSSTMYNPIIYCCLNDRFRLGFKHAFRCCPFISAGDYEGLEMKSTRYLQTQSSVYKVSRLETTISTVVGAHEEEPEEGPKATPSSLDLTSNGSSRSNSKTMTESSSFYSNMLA

| Binder | Ki | LogIC50 |
| --- | --- | --- |
| Y[dA]GF[Nle]PS(βGlc)W-{NH(3,5-(CF3)2-benzyl)} [Tyr-D-Ala-Gly-Phe-Nle-Pro-Ser(Glc)-Trp-NH-3’,5’-Bzl(CF3)2] | 14 nM | -7.3 |
| Y[dA]GF[Nle]PLS(βGlc)W-{NH(3,5-(CF3)2-benzyl)} [Tyr-D-Ala-Gly-Phe-Nle-Pro-Leu-Ser(Glc)-Trp-NH-3’,5’-Bzl(CF3)2] | – | -7.02 |
| Y[dA]GFS(βGlc)PLW-{NH(3,5-(CF3)2-benzyl)} [Tyr-D-Ala-Gly-Phe-Ser(Glc)-Pro-Leu-Trp-NH-3’,5’-Bzl(CF3)2] | 1.5 nM | -8.35 |
